# Laboratory results as given in article PMC5643561, “Zdhhc13-dependent Drp1 S-palmitoylation impacts brain bioenergetics, anxiety, coordination and motor skills” (Scientific Reports, 2017).
# Molecular target: T1, Drp1, recombinant, purified (Novus Biologicals # H00010059-P01) (UniProt O00429 1-736)
# T1 construct: Drp1 (dynamin-related protein 1); The methods call Drp1 GST-tagged and immobilised; The results describe it as untagged analyte at 56, 167 and 500 nM; also called GST-tagged recombinant, purified Drp1; recombinant Drp1; source: bought: Novus Biologicals, # H00010059-P01
# Test: BLI; Octet RED384 (ForteBio), anti-GST biosensor. Methods: GST-Drp1 immobilised, WT or L203X Zdhhc13 in solution. Results: GST-Zdhhc13 captured, Drp1 at 56, 167 and 500 nM.
# Details: both partners purified
# T1 sequence (O00429 whole entry): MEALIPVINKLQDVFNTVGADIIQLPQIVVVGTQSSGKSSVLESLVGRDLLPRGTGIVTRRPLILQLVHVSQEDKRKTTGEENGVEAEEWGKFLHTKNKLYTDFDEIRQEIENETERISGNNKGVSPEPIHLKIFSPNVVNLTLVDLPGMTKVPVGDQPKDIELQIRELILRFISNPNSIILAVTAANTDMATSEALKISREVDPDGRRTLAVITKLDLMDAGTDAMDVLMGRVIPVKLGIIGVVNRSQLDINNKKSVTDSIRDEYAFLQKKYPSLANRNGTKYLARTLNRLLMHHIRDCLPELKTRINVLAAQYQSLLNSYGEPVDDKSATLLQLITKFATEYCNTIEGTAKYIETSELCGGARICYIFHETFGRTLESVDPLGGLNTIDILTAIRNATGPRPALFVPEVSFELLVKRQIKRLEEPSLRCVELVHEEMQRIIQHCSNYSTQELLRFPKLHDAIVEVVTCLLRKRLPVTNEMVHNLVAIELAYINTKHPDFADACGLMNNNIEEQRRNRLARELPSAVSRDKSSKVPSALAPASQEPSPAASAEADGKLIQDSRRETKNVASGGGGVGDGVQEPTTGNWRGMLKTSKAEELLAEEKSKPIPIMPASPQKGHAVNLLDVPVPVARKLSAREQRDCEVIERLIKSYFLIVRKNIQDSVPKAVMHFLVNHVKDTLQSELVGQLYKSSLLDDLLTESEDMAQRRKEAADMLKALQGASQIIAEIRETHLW
Kd [nM],koff [s⁻¹],kon [M⁻¹ s⁻¹],Binder
560,0.046,82000,"Zdhhc13, wild type, recombinant (mouse sequence) (enzyme, UniProt Q9CWU2 1-622, looked up, Zdhhc13, mouse, UniProtKB Q9CWU2; also called WT Zdhhc13; full length GST-tagged Zdhhc13; source: purified recombinant (culture supernatant)) MEGPGLGSQCRNHSHGSHVPGFGRHGICVHENKELAKAKEILPLIEDSSNCDIVKATQYGIFERCKELVEAGYDVRQPDRENVSLLHWAAINNRLELVKFYISKGAVIDQLGGDLNSTPLHWAIRQGHLPMVILLLQHGADPTLIDGEGFSSIHLAVLFQHMPIIAYLISKGQSVNMTDVNGQTPLMLSAYKVIGPEPTGFLLKFNPSLSVVDKTHQNTPLHWAVAAGNVSAVDKLLEAGSSLDIRNAKGETPLDMALQSKNQLISHMLRTEAKMRANKQFRLWRWLHKCELFLLLILSMITLWAVGYILDFNSDSWLLKGCLLVALFFLTSLFPRFLVGYKNLVYLPTVFLLSSIFWIFMTWFILFFPDTAGSPLYFAFIFSIMAFLYFFYKTWATDPGFTKASEEERKVNIVTLAETGSLDFRTFCTSCLIRKPLRSLHCHVCNSCVARFDQHCFWTGRCIGFGNHHHYIFFLLSLSMVCDWIIYGSFVYWSNHCATTFKEDGLWTYLNQIVACSPWVLYIFMLAAFHFSWSTFLLINQLFQIAFLGLTSHERISLLKQSRHMKQTLSLRKTPYNLGFTQNLADFFQCGCFGLVKPCIIDWTSQYTMVFHPAKEKVLRSV"
88,0.0018,21000,"Zdhhc13 L203X, truncated form, recombinant (mouse sequence) (domain or fragment, UniProt Q9CWU2 1-202, looked up, Zdhhc13, mouse, UniProtKB Q9CWU2; naturally occurring nonsense mutation L203X (premature stop codon at codon 203), so the chain ends at residue 202; also called L203X Zdhhc13; truncated Zdhhc13; source: purified recombinant (culture eluate)) MEGPGLGSQCRNHSHGSHVPGFGRHGICVHENKELAKAKEILPLIEDSSNCDIVKATQYGIFERCKELVEAGYDVRQPDRENVSLLHWAAINNRLELVKFYISKGAVIDQLGGDLNSTPLHWAIRQGHLPMVILLLQHGADPTLIDGEGFSSIHLAVLFQHMPIIAYLISKGQSVNMTDVNGQTPLMLSAYKVIGPEPTGFL"
